Paper PMC5483248, “The LacI family protein GlyR3 co-regulates the celC operon and manB in Clostridium thermocellum” (Biotechnology for Biofuels, 2017)
Values joined by “and” are separate entries in the source; they are usually repeats but may differ in a detail not shown here. Equal entries are not always repeated.

How the values were obtained:
[1] = target: T1, GlyR3 (Acetivibrio thermocellus, UniProt A3DJ78); assay: EMSA, release of GlyR3 from biotin-labelled celC operator DNA (ImageJ); assay type: binding; conditions: GlyR3 150 ng (387 nM); celC DNA 0.2 ng (0.156 nM); laminaribiose 70 μg (100 mM); effector, dissociates repressor from celC site
T1 construct: gene Cthe_2808; full gene cloned in pTXB1, expressed in E. coli T7 Express C2566, purified with the IMPACT (intein) system
T1 sequence (A3DJ78 1-345): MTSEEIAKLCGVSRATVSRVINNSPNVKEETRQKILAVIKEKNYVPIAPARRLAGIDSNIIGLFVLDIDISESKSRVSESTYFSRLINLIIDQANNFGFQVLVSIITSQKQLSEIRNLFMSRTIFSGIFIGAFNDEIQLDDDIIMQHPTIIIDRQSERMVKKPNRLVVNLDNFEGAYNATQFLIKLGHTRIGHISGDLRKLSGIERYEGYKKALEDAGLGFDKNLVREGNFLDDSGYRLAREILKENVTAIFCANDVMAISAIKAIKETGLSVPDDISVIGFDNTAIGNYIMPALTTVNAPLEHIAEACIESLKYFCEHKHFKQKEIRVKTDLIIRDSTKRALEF

[2] = target: T2, GlyR3 (Clostridium thermocellum) (UniProt Q9AL35); assay: EMSA; conditions: LightShift Chemiluminescent EMSA kit, TBE gel; 0.2 ng biotin-DNA (0.156-0.204 nM), GlyR3 150 ng (387 nM) unless titrated; binding buffer salt, pH and …
T2 sequence: T1 sequence (A3DJ78 1-345)

[3] = target: T3, GlyR3 (Clostridium thermocellum, UniProt Q9AL35 1-345); assay: EMSA; conditions: LightShift Chemiluminescent EMSA kit, TBE gel, 0.2 ng biotin-DNA (0.156-0.204 nM), GlyR3 150 ng (387 nM) unless titrated, binding buffer salt, pH and …
T3 sequence: T1 sequence (A3DJ78 1-345)

[4] = target: T3, GlyR3; assay: competition; 500 ng 18-mer reverses shift of celC probe; LightShift Chemiluminescent EMSA kit, TBE gel; 0.2 ng biotin-DNA (0.156-0.204 nM), GlyR3 150 ng (387 nM) unless titrated; binding buffer salt, pH and temperature not given; conditions: protein: recombinant; tags: expressed from pTXB1 (IMPACT intein system, NEB); chain copies: 2; label: unlabeled; blunt
[5] = target: T3, GlyR3; assay: competition; 500 ng 18-mer reverses shift of manB probe; LightShift Chemiluminescent EMSA kit, TBE gel; 0.2 ng biotin-DNA (0.156-0.204 nM), GlyR3 150 ng (387 nM) unless titrated; binding buffer salt, pH and temperature not given; conditions: protein: recombinant; tags: expressed from pTXB1 (IMPACT intein system, NEB); chain copies: 2; label: unlabeled; blunt
[6] = 387 nM GlyR3, 50 mM laminaribiose
[7] = 387 nM GlyR3, 100 mM laminaribiose

Molecule: OC[C@H]1O[C@@H](O[C@H]2[C@H](O)[C@@H](CO)OC(O)[C@@H]2O)[C@H](O)[C@@H](O)[C@@H]1O (stereo partly drawn) [laminaribiose]
- % celC DNA shifted at 100 mM laminaribiose [1]: 67%

Molecule: CCGAATAAAAACTGGACAGAGAAGAAGAAAACGTGATATAATTAAATTAGAATGAACGCGCGTACATTATTGAATAATCCAGTGTTAAATGGTTTCAGTTTACGATTTCAAATGTTTATATCCAATTTACATTTAAAAACATACAAAACATCAAAAGTATTTAATACCAATATTTAAAACACAATATTTCAGGAGGA (double strand) [celC EMSA fragment]
- binding [2]: binds
- binding signal [2]: 99 % shifted

Molecule: TCGGTGAATGTTGAGGTTGACAAGGAAGGACTTTATGAAATATTCATCTGCTATGTGCAGCCTTACGACAAAAACAAAAAAGTGCAGTATCTTAATGTAAACGGTGTCAATCAGGGAGAAATAAGCTTTCCGTTTACTCTTAAATGGAGAGAGATTTCAGCAGGA (double strand) [manB EMSA fragment]
- binding [2]: binds more weakly
- binding signal [2]: 18 % shifted (2×) and 19 % shifted

Molecule: TGAGCAAATCAATTGTAATATGAAGAAAAATATAGTAAGATATTAATAAAAGAATAAAATAATATATTGGTATAATATGTAAATCGGTTGCAGTAATGCTATTCCAATAAAAGATGAAAGATTTCCGTTAATTCATTGAAAGAAACGTTCTGCTGCA (double strand) [celT EMSA fragment]
- binding [2]: no binding

Molecule: TGTTATCTTCGGTTAGCTCATCAAGGTAATCATAGAATATATTATAAAGAGTAACAAAGTAAATAAACTCAGGTGTATTTTCTTTATATAGAATTCTCATTTGCTCAAGAACTTTATCTTTAACATCCTGAACAGCAGTATCATCCTCCCA (double strand) [random control DNA fragment]
- binding [2]: no binding

Molecule: celC EMSA fragment
- binding signal [3, 6]: 82 % shifted
- binding signal [3, 7]: 67 % shifted
- binding signal ([3]; 387 nM GlyR3, no laminaribiose): 99 % shifted

Molecule: manB EMSA fragment
- binding signal [3, 6]: 18 % shifted
- binding signal [3, 7]: 19 % shifted
- binding signal ([3]; 387 nM GlyR3, no laminaribiose): 18 % shifted

B1: celC 18-mer competitor (dsDNA)
DNA 1: AATGAACGCGCGTACATT
DNA 2: AATGTACGCGCGTTCATT
- binding result [4]: binds

B2: manB 18-mer competitor (dsDNA)
DNA 1: AATGTAAACGGTGTCAAT
DNA 2: ATTGACACCGTTTACATT
- binding result [5]: binds
